Substrate: C[C@@H](O)[C@H]1C(=O)N2C(C(=O)O)=C([C@H]3CCCO3)S[C@H]12
Test: purified protein
Assay type: biochemical, Stenotrophomonas maltophilia
Details: two Zn2+ ions active site

B1: L1 (Stenotrophomonas maltophilia) (protein)
chain: VDASWLQPMAPLQIADHTWQIGTEDLTALLVQTPDGAVLLDGGMPQMASHLLDNMKARGVTPRDLRLILLSHAHADHAGPVAELKRRTGAKVAANAESAVLLARGGSDDLHFGDGITYPPANADRIVMDGEVITVGGIVFTAHFMAGHTPGSTAWTWTDTRNGKPVRIAYADSLSAPGYQLQGNPRYPHLIEDYRRSFATVRALPCDVLLTPHPGASNWDYAAGARAGAKALTCKAYADAAEQKFDGQLAKETAGAR
- Km: 36.3 µM
- kcat: 43.7 s⁻¹
- kcat/Km: 1.2e+06 M⁻¹ s⁻¹
